B1: KGC-HDAC4c (C-terminal portion of Kusabira Green protein fused with HDAC4c), wild type [human] / KGN-SRD3c (N-terminal portion of Kusabira Green protein fused with SRD3c) [human] (parent complex)
chain 1: PRFTTGLVYDTLMLKHQCTCGSSSSHPEHAGRIQSIWSRLQETGLRGKCECIRGRKATLEELQTVHSEAHTLLYGTNPLNRQKLDSKKLLGSLASVFVRLPCGGVGVDSDTIWNEVHSAGAARLAVGCVVELVFKVATGELKNGFAVVRPPGHHAEESTPMGFCYFNSVAVAAKLLQQRLSVSKILIVDWDVHHGNGTQQAFYSDPSVLYMSLHRYDDGNFFPGSGAPDEVGTGPGVGFNVNMAFTGGLDPPMGDAEYLAAFRTVVMPIASEFAPDVVLVSSGFDAVEGHPTPLGGYNLSARCFGYLTKQLMGLAGGRIVLALEGGHDLTAICDASEACVSALLGNELDPLPEKVLQQRPNANAVRSMEKVMEIHSKYWRCLQRTTSTAGRSLIEAQTCENEEAET
chain 2: EGGMSVTQCSKEDGRSSSGPPHETAAPKRTYDMMEGRVGRAISSASIEGLMGRAIPPERHSPHHLKEQHHIRGSITQGIPRSYVEAQEDYLRREAKLLKREGTPPPPPPSRDLTEAYKTQALGPLKLKPAHEGLVATVKEAGRSIHEIPREELRHTPELPLAPRPLKEGSITQGTPLKYDTGASTTGSKKHDVRSLIGSPGRTFPPVHPLDVMADARALERACY
B2: KGC-HDAC5c (C-terminal portion of Kusabira Green protein fused with HDAC5c), wild type [human] / KGN-SRD3c (N-terminal portion of Kusabira Green protein fused with SRD3c) [human] (parent complex)
chain 1: LFTTGVVYDTFMLKHQCMCGNTHVHPEHAGRIQSIWSRLQETGLLSKCERIRGRKATLDEIQTVHSEYHTLLYGTSPLNRQKLDSKKLLGPISQKMYAVLPCGGIGVDSDTVWNEMHSSSAVRMAVGCLLELAFKVAAGELKNGFAIIRPPGHHAEESTAMGFCFFNSVAITAKLLQQKLNVGKVLIVDWDIHHGNGTQQAFYNDPSVLYISLHRYDNGNFFPGSGAPEEVGGGPGVGYNVNVAWTGGVDPPIGDVEYLTAFRTVVMPIAHEFSPDVVLVSAGFDAVEGHLSPLGGYSVTARCFGHLTRQLMTLAGGRVVLALEGGHDLTAICDASEACVSALLSVELQPLDEAVLQQKPNINAVATLEKVIEIQSKHWSCVQKFAAGLGRSLREAQAGETEEAETVS
chain 2: B1 chain 2

In the first test the parent is B1. Nature of the test: BiFC assay (fluorescence spectrophotometer); HEK293 cells; KGN-SRD3c (1 μg) and KGC-HDAC4c mutant (1 μg); 48 hours of transfection; whole cell lysates; parent: 8; read off a plot.
Consider chain 1 G219A, for which the response is about 5.3 RFU.

chain 1 G152E: the response is about 3.9 RFU.

Consider chain 1 G197R, for which the response is about 6.8 RFU.

For chain 1 G195R, the response is about 4.6 RFU.

On to chain 1 A125D, for which the response is about 4.3 RFU.

With chain 1 F163S, the response was about 4.5 RFU.

For chain 1 S118P, the response is about 4.4 RFU.

As for chain 1 H194R, the response is about 3.9 RFU.

Turning to chain 1 T111P, the response is about 4.2 RFU.

For the variant chain 1 P150H, the response was about 4.2 RFU.

Take chain 1 C164Y: the response was about 4.1 RFU.

chain 1 H154Y: the response was about 4.3 RFU.

Take chain 1 N196S: the response is about 4.2 RFU.

Consider chain 1 F222L, for which the response is about 4.1 RFU.

With chain 1 D110Y, the response is about 5.5 RFU.

In the case of chain 1 A155T, the response was about 4.6 RFU.

chain 1 P151H: the response is about 4.1 RFU.

The next test covers variants of B2. Nature of the test: BiFC assay (fluorescence spectrophotometer); HEK293 cells; KGN-SRD3c (1 μg) and KGC-HDAC5c mutant (1 μg); 48 hours of transfection; whole cell lysates; parent: 9.3; read off a plot.
In the case of chain 1 S118P, the response was about 3.9 RFU.

As to chain 1 P150L, the response was about 3.8 RFU.

For the variant chain 1 G326C, the response was about 4 RFU.

Turning to chain 1 P151S, the response is about 5.9 RFU.

For the variant chain 1 C164R, the response was about 4.4 RFU.

As for chain 1 G152E, the response was about 4.1 RFU.

Take chain 1 G295C: the response is about 5 RFU.

For the variant chain 1 G127E, the response was about 3.7 RFU.

For chain 1 G325V, the response was about 4.1 RFU.

For the variant chain 1 H154R, the response is about 4.9 RFU.

Regarding chain 1 G219W, the response is about 3.9 RFU.

For chain 1 F222L, the response was about 3.9 RFU.

chain 1 G197D: the response was about 4 RFU.

In the case of chain 1 G195C, the response is about 3.9 RFU.

Take chain 1 D110G: the response was about 5.1 RFU.

Regarding chain 1 N196D, the response was about 3.7 RFU.

Regarding chain 1 F163S, the response is about 5.8 RFU.

These data come from paper PMC4498904, “Mutagenesis Study Reveals the Rim of Catalytic Entry Site of HDAC4 and -5 as the Major Binding Surface of SMRT Corepressor” (PLoS ONE, 2015).
